The record followed here is PMC4971492.

The experiment deals with Bio-GFP-tagged KIF21A STALK (whole KIF21A stalk domain) (human). The experiment in a line: single-molecule GFP counting (TIRF); HEK293T cell extracts with Bio-GFP-tagged constructs, molecules immobilised on coverslips, initial fluorescence intensities against monomeric GFP and dimeric EB1-GFP; room temperature.

Bio-GFP-tagged KIF21A STALK (whole KIF21A stalk domain) (domain or fragment), sequence (Q7Z4S6 whole entry, the tested form may be a part): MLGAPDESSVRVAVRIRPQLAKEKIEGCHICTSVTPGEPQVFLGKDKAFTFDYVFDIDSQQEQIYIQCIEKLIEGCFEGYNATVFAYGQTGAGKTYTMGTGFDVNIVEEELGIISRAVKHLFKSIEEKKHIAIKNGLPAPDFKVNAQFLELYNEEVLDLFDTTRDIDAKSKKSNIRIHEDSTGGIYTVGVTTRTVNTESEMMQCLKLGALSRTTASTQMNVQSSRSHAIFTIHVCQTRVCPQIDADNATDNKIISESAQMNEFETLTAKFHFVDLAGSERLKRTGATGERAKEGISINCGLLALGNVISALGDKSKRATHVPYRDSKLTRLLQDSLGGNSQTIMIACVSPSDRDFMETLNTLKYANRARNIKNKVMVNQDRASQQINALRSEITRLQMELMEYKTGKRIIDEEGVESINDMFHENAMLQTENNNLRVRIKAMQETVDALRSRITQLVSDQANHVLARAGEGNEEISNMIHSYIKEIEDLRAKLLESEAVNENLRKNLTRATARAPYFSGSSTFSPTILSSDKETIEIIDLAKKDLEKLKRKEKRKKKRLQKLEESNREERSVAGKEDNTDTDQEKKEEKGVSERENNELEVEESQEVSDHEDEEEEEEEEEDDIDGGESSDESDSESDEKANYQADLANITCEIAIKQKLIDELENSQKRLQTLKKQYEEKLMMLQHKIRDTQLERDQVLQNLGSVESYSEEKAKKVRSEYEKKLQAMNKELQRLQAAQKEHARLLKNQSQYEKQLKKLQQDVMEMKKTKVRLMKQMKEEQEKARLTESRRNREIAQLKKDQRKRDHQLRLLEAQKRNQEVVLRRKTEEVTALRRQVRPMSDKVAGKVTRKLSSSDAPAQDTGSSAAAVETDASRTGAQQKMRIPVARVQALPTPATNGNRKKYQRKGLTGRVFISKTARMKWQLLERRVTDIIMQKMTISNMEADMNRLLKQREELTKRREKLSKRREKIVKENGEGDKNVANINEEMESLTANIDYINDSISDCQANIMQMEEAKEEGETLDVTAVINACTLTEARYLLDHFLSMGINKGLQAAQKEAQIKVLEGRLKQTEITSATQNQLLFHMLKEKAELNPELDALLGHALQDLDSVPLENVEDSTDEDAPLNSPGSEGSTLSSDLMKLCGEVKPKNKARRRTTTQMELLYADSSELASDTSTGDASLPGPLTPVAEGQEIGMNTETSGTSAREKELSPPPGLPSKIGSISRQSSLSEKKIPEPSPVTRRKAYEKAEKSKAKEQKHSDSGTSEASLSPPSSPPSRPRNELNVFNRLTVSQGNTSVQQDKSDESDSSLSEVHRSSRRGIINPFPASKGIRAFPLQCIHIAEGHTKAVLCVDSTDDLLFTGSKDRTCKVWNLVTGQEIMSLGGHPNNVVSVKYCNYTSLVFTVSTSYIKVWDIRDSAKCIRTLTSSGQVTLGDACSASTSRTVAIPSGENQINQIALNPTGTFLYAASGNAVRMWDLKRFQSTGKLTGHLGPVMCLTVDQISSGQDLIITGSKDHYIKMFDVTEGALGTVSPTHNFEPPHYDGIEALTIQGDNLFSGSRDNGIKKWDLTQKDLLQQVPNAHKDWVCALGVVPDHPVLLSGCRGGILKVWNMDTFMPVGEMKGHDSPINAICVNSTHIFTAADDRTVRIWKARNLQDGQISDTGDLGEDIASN

“Bio-GFP-tagged KIF21A STALK (whole KIF21A stalk domain) (domain or fragment)” had a stoichiometry N of 2.

In general, stoichiometry N refers to a count of units in the complex or per binding partner.
